Measurements published in patent US20250163167A1 (SYNTHEKINE, published 2025).

T1: human IL-10 receptor (hIL-10R alpha and beta chains) on HEK-Blue IL-10 reporter cells (human, UniProt Q13651 22-578; Q08334 20-325)
T1 sequence 1: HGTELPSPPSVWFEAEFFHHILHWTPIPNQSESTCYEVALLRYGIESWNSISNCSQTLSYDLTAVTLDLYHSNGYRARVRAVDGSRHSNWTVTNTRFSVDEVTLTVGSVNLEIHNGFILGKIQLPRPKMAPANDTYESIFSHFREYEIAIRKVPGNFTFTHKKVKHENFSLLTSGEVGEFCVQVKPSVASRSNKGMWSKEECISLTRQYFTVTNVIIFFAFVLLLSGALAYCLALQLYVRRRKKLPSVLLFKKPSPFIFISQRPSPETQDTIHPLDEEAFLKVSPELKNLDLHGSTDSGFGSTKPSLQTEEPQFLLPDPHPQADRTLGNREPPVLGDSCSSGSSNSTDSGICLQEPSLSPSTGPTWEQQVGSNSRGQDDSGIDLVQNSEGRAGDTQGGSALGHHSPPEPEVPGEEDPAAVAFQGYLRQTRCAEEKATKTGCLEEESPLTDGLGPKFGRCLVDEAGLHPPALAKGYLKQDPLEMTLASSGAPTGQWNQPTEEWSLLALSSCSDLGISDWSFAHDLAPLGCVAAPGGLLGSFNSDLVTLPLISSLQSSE
T1 sequence 2: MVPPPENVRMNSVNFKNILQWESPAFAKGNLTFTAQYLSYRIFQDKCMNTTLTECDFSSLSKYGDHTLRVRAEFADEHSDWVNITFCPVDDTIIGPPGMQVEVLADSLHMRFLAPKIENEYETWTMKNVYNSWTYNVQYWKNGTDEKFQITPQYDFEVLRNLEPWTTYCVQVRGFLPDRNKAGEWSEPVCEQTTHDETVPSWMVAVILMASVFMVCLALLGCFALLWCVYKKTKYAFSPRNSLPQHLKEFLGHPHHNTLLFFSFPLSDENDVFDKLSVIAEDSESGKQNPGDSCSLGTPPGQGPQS

T2: hIL10Rb ECD antigen (human, UniProt Q08334 20-220)
T2 construct: Antigen of biopanning and PE-ELISA; also called extracellular domain of hIL10Rb
T2 sequence: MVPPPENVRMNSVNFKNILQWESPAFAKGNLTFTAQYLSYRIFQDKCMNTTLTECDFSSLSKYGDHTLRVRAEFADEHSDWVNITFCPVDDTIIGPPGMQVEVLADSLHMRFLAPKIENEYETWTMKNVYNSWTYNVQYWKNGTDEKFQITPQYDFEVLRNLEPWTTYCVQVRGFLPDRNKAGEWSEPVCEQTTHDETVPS

B1: IL10R binding molecule of SEQ ID NO: 299 (bispecific antibody)
chain: QVQLQESGGGSVQAGGSLRLSCAASGYSNCSYDMTWYRQAPGKEREFVSAIHSDGSTRYADSVKGRFFISQDNAKNTVYLQMNSLKPEDTAMYYCKTDPLHCRAHGGSWYSVRANYWGQGTQVTVSSGGGSQVQLQESGGGSVQAGGSLRLSCAASGYTYSSYCMGWFRQAPGKEREGVAHIDSDGSTSYADSVKGRFTISKDNAKNTLYLQMNSLKPEDTAMYYCAADPIPGPGYCDGGPNKYWGQGTQVTVSSASHHHHHH
B2: IL10R binding molecule of SEQ ID NO: 300 (bispecific antibody)
chain: QVQLQESGGGSVQAGGSLRLSCAASGYSNCSYDMTWYRQAPGKEREFVSAIHSDGSTRYADSVKGRFFISQDNAKNTVYLQMNSLKPEDTAMYYCKTDPLHCRAHGGSWYSVRANYWGQGTQVTVSSGGGSQVQLQESGGGSVQAGGSLRLSCAASRYTYNSYCMGWFRQAPGKEREGVATIDSDGMTRYADSVKGRFTISKDNAKNTLYLQMNSLKPEDTAMYYCAADADCTIAAMTTNPLGQGTQVTVSSASHHHHHH
B3: IL10R binding molecule of SEQ ID NO: 302 (bispecific antibody)
chain: QVQLQESGGGSVQAGGSLRLSCAASGYSNCSYDMTWYRQAPGKEREFVSAIHSDGSTRYADSVKGRFFISQDNAKNTVYLQMNSLKPEDTAMYYCKTDPLHCRAHGGSWYSVRANYWGQGTQVTVSSGGGSQVQLQESGGGSVEAGGSLRLSCAASGYTHSSYCMGWFRQAPGKEREGVAAIDVDGSTTYADSVKGRFTISKDNAKNTLYLQMNSLKPEDTGMYYCAAEFADCSSNYFLPPGAVRYWGQGTQVTVSSASHHHHHH
B4: IL10R binding molecule of SEQ ID NO: 303 (bispecific antibody)
chain: QVQLQESGGGSVQAGGSLRLSCAASGYSNCSYDMTWYRQAPGKEREFVSAIHSDGSTRYADSVKGRFFISQDNAKNTVYLQMNSLKPEDTAMYYCKTDPLHCRAHGGSWYSVRANYWGQGTQVTVSSGGGSQVQLQESGGGSVQAGGSLRLSCAASGYSYSSYCMGWFRQAPGKEREGVATIDSDGMTRYADSVKGRFTISKDNAKNTLYLQMNSLKPEDTAMYYCAAPLYDCDSGAVGRNPPYWGQGTQVTVSSASHHHHHH
B5: IL10R binding molecule of SEQ ID NO: 301 (bispecific antibody)
chain: QVQLQESGGGSVQAGGSLRLSCAASGYSNCSYDMTWYRQAPGKEREFVSAIHSDGSTRYADSVKGRFFISQDNAKNTVYLQMNSLKPEDTAMYYCKTDPLHCRAHGGSWYSVRANYWGQGTQVTVSSGGGSQVQLQESGGGSVQAGGSLRLSCTVSRYTASVNYMGWFRQAPGKEREGVATIFTGAGTTYYANSVKGRFTISRDNAKNTAYLQMNSLKPEDTAIYYCAVDFRGGLLYRPAYEYTYRGQGTQVTVSSASHHHHHH
B6: IL10R binding molecule of SEQ ID NO: 298 (bispecific antibody)
chain: QVQLQESGGGSVQAGGSLRLSCAASGYSNCSYDMTWYRQAPGKEREFVSAIHSDGSTRYADSVKGRFFISQDNAKNTVYLQMNSLKPEDTAMYYCKTDPLHCRAHGGSWYSVRANYWGQGTQVTVSSGGGSQVQLQESGGGSVQAGGSLRLSCAASGYTYSSGCMGWFRQAPGKEREAVAAINSDGSTSYADSVKGRFTISKDNAKNTLYLQMNSLKPEDTAMYYCAAEPYCSGGYPRWSVAEFGYWGQGTQVTVSSASHHHHHH
B7: hIL10Rb VHH-17 (VHH)
VHH: QVQLQESGGGSVQAGGSLRLSCTVSRYTASVNYMGWFRQAPGKEREGVATIFTGAGTTYYANSVKGRFTISRDNAKNTAYLQMNSLKPEDTAMYYCAVDFRGGLLYRPAYEYTYRGQGTQVTVSS
notes: Phage clone, periplasmic extract
B8: hIL10Rb VHH-5 (VHH)
VHH: QVQLQESGGGLVQPGGSLRLSCAASGYTYSSYCMGWFRQAPGKEREGVAHIDSDGSTTYADSVKGRFTISKDNAKNTLYLQMNSLKPEDTAMYYCAADPIPGPGYCDGGPNKYWGQGTQVTVSS
notes: as for B7
B9: hIL10Rb VHH-13 (VHH)
VHH: QVQLQESGGGSVQAGGSLRLSCAASGYTYSSYCMGWFRQAPGKEREGVAHIDSDGSTSYADSVKGRFTISKDNAKNTLYLQMNSLKPEDTAMYYCAADPIPGPGYCDGGPNNYWGQGTQVTVSS
notes: as for B7
B10: hIL10Rb VHH-24 (VHH)
VHH: QVQLQESGGGSVQAGGSLKLSCAASGYTYSSYCMGWFRQAPGKEREGVAHIDSDGSTTYADSVKGRFTISKDNAKNTLYLQMNSLKPEDTAMYYCAADPIPGPGYCDGGPNNYWGQGTQVTVSS
notes: as for B7
B11: hIL10Rb VHH-25 (VHH)
VHH: QVQLQESGGGSVQAGGSLRLSCAASGYTYSSYCMGWFRQAPGKEREGIAHIDSDGSTTYADSVKGRFTISKDNAKNTLYLQMNSLKPEDTAMYYCAADPIPGPGYCDGGPNNYWGQGTQVTVSS
notes: as for B7
B12: hIL10Rb VHH-20 (VHH)
VHH: QVQLQESGGGSVQAGGSLRLSCAASGYTYSSYCMGWFRQAPGKEREGVAHIDSDGSTTYADSVKGRFAISKDNAKNTLYLQMNSLKPEDTAMYYCAADPIPGPGYCDGGPNKYWGQGTQVTVSS
notes: as for B7
B13: hIL10Rb VHH-22 (VHH)
VHH: QVQLQESGGGSVQAGGSLRLSCAASGYTDSRYCMGWFRKAPGKEREGVAHIDSDGSTSYADSVKGRFTISKDNAKNTLYLQMNSLKPEDTAMYYCAADPIPGPGYCDGGPNKYWGQGTQVTVSS
notes: as for B7
B14: hIL10Rb VHH-10 (VHH)
VHH: QVQLQESGGGLVQPGGSLRLSCAASGYTYSSYCMGWFRQAPGKEREGVAHIDSDGSTTYADSVKGRFAISKDNAKNTLYLQMNSLKPEDTAMYYCAADPIPGPGYCDGGPNKYWGQGTQVTVSS
notes: as for B7
B15: hIL10Rb VHH-2 (VHH)
VHH: QVQLQESGGGSVQAGGSLRLSCAASGYTYSSYCMGWFRQAPGKEREGVAAIDSDGSTRYADSVKGRFTISKDNAKNTLYLQMNSLKPEDTAMYYCAAEPYCSGGYKRTMVAEFGYWGQGTQVTVSS
notes: as for B7
B16: hIL10Rb VHH-7 (VHH)
VHH: QVQLQESGGGSVQAGGSLRLSCAASGYTYSSGCMGWFRQAPGKEREGVATINSDGSTNYADSVKGRFTISKDNAKNTLYLQMNSLKPEDTAMYYCAAEPYCSGGYPRWSVAEFGYWGQGTQVTVSS
notes: as for B7
B17: hIL10Rb VHH-23 (VHH)
VHH: QVQLQESGGGSVQAGGSLRLSCAASGYTYSSYCMGWFRQAPGKEREGVAAIDSDGSTRYADSVKGRFTISKDNAKKILYLQMNSLKVEDTAMYYCAAEPYCSGGYKRTMVAEFGFWGQGTQVTVSS
notes: as for B7
B18: hIL10Rb VHH-14 (VHH)
VHH: QVQLQESGGGSVQAGGSLRLSCAASGYTYSSGCMGWFRQAPGKEREGVATINSDGSTNYADSVKGRFTISKDNAKNTLYLQMNSLKPEDTGMYYCAAEPYCSGGYPRWSVAEFGYWGQGTQVTVSS
notes: as for B7
B19: hIL10Rb VHH-11 (VHH)
VHH: QVQLQESGGGSVQAGGSLRLSCAASGYTYSSYCMGWFRQAPGKGREGVAAIDSDGSTRYADSVKGRFTISKDNAKNTLYLQMNSLKPEDTAMYYCAAEPYCSGGYKRTMVAEFGYWGQGTQVTVSS
notes: as for B7
B20: hIL10Rb VHH-8 (VHH)
VHH: QVQLQESGGGSVQAGGSLRLSCAASGYSYSSYCMGWFRQAPGKEREGVAAIASDGSTSYADSVKGRFAISKDNAKNTLYLQMASLKPEDTAMYYCAAEPWCTGGYSRLTPAEYGYWGQGTQVTVSS
notes: as for B7
B21: hIL10Rb VHH-9 (VHH)
VHH: QVQLQESGGGLVQPGGSLRLSCAASGYTYSSGCMGWFRQAPGKEREGVATINSDGSTNYADSVKGRFTISKDNAKNTLYLQMNSLKPEDTAMYYCAAEPYCSGGYPRWSVAEFGYWGQGTQVTVSS
notes: as for B7
B22: hIL10Rb VHH-18 (VHH)
VHH: QVQLQESGGGSVQAGGSLRLSCAASGDTYSSYCMGWFRQAPGKEREGVAFIDSDGSTRYADSVEGRFTISKDNAKNTLYLQMNSLKPEDTAMYYCAAEPYCSGGYHRKEMAEFGYWGQGTQVTVSS
notes: as for B7

Biological target: T1, human IL-10 receptor (hIL-10R alpha and …)
Assay: cell-based or functional assay

With B1 as the binder, how does the “Abs 630 (25 nM)” value read?
The value was 0.47 Abs 630.

And the “Abs 630 (100 nM)” value?
Its value is 0.37 Abs 630.

For B2, which “Abs 630 (25 nM)” value is on record?
The value was 2.08 Abs 630.

What about the “Abs 630 (100 nM)” value of the same binder?
Its value is 2.11 Abs 630.

How did the “Abs 630 (25 nM)” value turn out when B3 was run?
The value was 1.98 Abs 630.

What about the “Abs 630 (100 nM)” value of the same binder?
Its value is 2.09 Abs 630.

B4 was tested. Which “Abs 630 (25 nM)” value did it give?
Its value is 1.92 Abs 630.

And the “Abs 630 (100 nM)” value?
The value was 1.93 Abs 630.

How did the “Abs 630 (25 nM)” value turn out when B5 was run?
Its value is 2.05 Abs 630.

What about the “Abs 630 (100 nM)” value of the same binder?
The value was 1.91 Abs 630.

How did the “Abs 630 (25 nM)” value turn out when B6 was run?
The value was 0.84 Abs 630.

And the “Abs 630 (100 nM)” value?
Its value is 0.38 Abs 630.

Biological target: T2, hIL10Rb ECD antigen
Assay: periplasmic extract ELISA (PE-ELISA) of phage clones

Does B7 bind?
Result: binds

Does B8 bind?
Result: binds

Does B9 bind?
Result: binds

Does B10 bind?
Result: binds

Does B11 bind?
Result: binds

Does B12 bind?
Result: binds

Does B13 bind?
Result: binds

Does B14 bind?
Result: binds

Does B15 bind?
Result: binds

Does B16 bind?
Result: binds

Does B17 bind?
Result: binds

Does B18 bind?
Result: binds

Does B19 bind?
Result: binds

Does B20 bind?
Result: binds

Does B21 bind?
Result: binds

Does B22 bind?
Result: binds
